The values that follow come from patent US20250296912A1, “AFFINITY ILLUDOFULVENE CONJUGATES” (Illudent, Inc., published 2025).

The target of the assay is prostate specific antigen (Homo sapiens). Put plainly: cell-based or functional assay.

The star is where a group is joined. 3‑aminopropyl acylfulvene = analog 211, C-terminal Leu bound as amide to it; Mu = 4-morpholine-carbonyl, O=C(N1CCOCC1)*

For the molecule Mu-HSSKLQL-{3‑aminopropyl acylfulvene} [Analog 221 (Mu-His-Ser-Ser-Lys-Leu-Gln coupled to analog 207, 211-leucine)], the “IC50 (48 hour exposure), Prostate DuPro (trace PSA)” value came to 13 µM and the “IC50 (48 hour exposure), Prostate LnCAP (positive PSA)” value is 0.8 µM.
